From paper PMC7579404, “A Novel KPC Variant KPC-55 in Klebsiella pneumoniae ST307 of Reinforced Meropenem-Hydrolyzing Activity” (Frontiers in Microbiology, 2020) come the findings set out here.

The subject of series [1] is CC(C)(O/N=C(\C(=O)N[C@@H]1C(=O)N2C(C(=O)[O-])=C(C[n+]3ccccc3)CS[C@H]12)c1csc(N)n1)C(=O)O. Nature of the series: purified protein. The class given is biochemical, Klebsiella pneumoniae. The conditions noted are these: 50 mM morpholinepropanesulfonic acid pH 7.0, 50 mM NaCl, 100 mM sodium phosphate pH 7.0, 30°C.
The test system is the same in series [2]. In words: purified protein. The conditions noted are these: 50 mM morpholinepropanesulfonic acid pH 7.0, 50 mM NaCl, 100 mM sodium phosphate pH 7.0, 30°C.

The Km is the concentration of substrate that gives half-maximal velocity. In general, kcat refers to the maximal rate divided by the concentration of active sites. For orientation: kcat/Km means the turnover number divided by the Michaelis constant. Consider “KPC-2 (and its variant KPC-55 = KPC-2 Y264N) (Klebsiella pneumoniae)”, for which, in series [1], the Km amounted to 0.28 ± 0.09 µM, the kcat came out at 0.02 ± 0.003 s⁻¹ and the specificity constant (kcat/Km) turned out to be 70000 ± 20000 M⁻¹ s⁻¹.

“KPC-2 (and its variant KPC-55 = KPC-2 Y264N) (Klebsiella pneumoniae; Y262N)”: in series [2], the Km came to 0.40 ± 0.11 µM, the turnover number (kcat) turned out to be 0.2 s⁻¹ and the kcat/Km was determined as 450000 M⁻¹ s⁻¹.
